Source: PMC6145892, “Roquin targets mRNAs in a 3′-UTR-specific manner by different modes of regulation”

Experiments:
Roquin-1 ROQ domain [1] = target: T1, Roquin-1 ROQ domain (UniProt Q4VGL6 171-326); assay: ITC; n=0.81; ITC at room temperature, RNA titrated into 10-40 uM protein; buffer 20 mM Tris pH 7.0, 150 mM NaCl, 25 uM ZnCl2, 2 mM TCEP, 0.02% azide (stated for Znf); NMR HSQC 50 uM protein, RT, 10% D2O; details: protein: recombinant; tags: His6-thioredoxin, TEV-removable; single-stranded, no imino signals
T1 sequence: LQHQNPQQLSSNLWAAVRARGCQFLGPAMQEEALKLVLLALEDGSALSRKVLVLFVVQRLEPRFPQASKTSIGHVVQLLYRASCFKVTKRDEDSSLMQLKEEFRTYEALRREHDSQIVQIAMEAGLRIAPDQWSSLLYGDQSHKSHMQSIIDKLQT

[2] = target: T2, Roquin-1 zinc finger (Znf, CCCH) (UniProt Q4VGL6 411-454); assay: ITC; Zn2+; n=0.5; ITC at room temperature, RNA titrated into 10-40 uM protein; buffer 20 mM Tris pH 7.0, 150 mM NaCl, 25 uM ZnCl2, 2 mM TCEP, 0.02% azide (stated for Znf); NMR HSQC 50 uM protein, RT, 10% D2O; details: protein: recombinant; tags: His6-GST removed by TEV; chain copies: 2; single-stranded, no imino signals
T2 chain: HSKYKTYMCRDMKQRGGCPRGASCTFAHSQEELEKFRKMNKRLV

[3] = target: T2, Roquin-1 zinc finger (Znf, CCCH); assay: ITC; Zn2+; n=0.45; ITC at room temperature, RNA titrated into 10-40 uM protein; buffer 20 mM Tris pH 7.0, 150 mM NaCl, 25 uM ZnCl2, 2 mM TCEP, 0.02% azide (stated for Znf); NMR HSQC 50 uM protein, RT, 10% D2O; details: protein: recombinant; tags: His6-GST removed by TEV; chain copies: 2; single-stranded
[4] = target: T2, Roquin-1 zinc finger (Znf, CCCH); assay: ITC; Zn2+; n=1.0; ITC at room temperature, RNA titrated into 10-40 uM protein; buffer 20 mM Tris pH 7.0, 150 mM NaCl, 25 uM ZnCl2, 2 mM TCEP, 0.02% azide (stated for Znf); NMR HSQC 50 uM protein, RT, 10% D2O; details: protein: recombinant; tags: His6-GST removed by TEV; chain copies: 2; single-stranded
[5] = target: T2, Roquin-1 zinc finger (Znf, CCCH); assay: ITC; Zn2+; n=0.48; ITC at room temperature, RNA titrated into 10-40 uM protein; buffer 20 mM Tris pH 7.0, 150 mM NaCl, 25 uM ZnCl2, 2 mM TCEP, 0.02% azide (stated for Znf); NMR HSQC 50 uM protein, RT, 10% D2O; details: protein: recombinant; tags: His6-GST removed by TEV; chain copies: 2; single-stranded
Roquin-1 ROQ domain [6] = target: T1, Roquin-1 ROQ domain; assay: ITC; complete loss of binding; ITC at room temperature, RNA titrated into 10-40 uM protein; buffer 20 mM Tris pH 7.0, 150 mM NaCl, 25 uM ZnCl2, 2 mM TCEP, 0.02% azide (stated for Znf); NMR HSQC 50 uM protein, RT, 10% D2O; details: protein: recombinant; tags: His6-thioredoxin, TEV-removable; single-stranded
[7] = target: T2, Roquin-1 zinc finger (Znf, CCCH); assay: ITC; Zn2+; ITC at room temperature, RNA titrated into 10-40 uM protein; buffer 20 mM Tris pH 7.0, 150 mM NaCl, 25 uM ZnCl2, 2 mM TCEP, 0.02% azide (stated for Znf); NMR HSQC 50 uM protein, RT, 10% D2O; details: protein: recombinant; tags: His6-GST removed by TEV; chain copies: 2; single-stranded

UUUUAACAUUAUUUU (ssRNA) [LBE (Nfkbiz 3'-UTR 15-mer)]
Kd (Roquin-1 ROQ domain [1]): 3.6 ± 0.4 µM
Kd [2]: 26.3 ± 3.4 µM

GUGUGUGUGU (ssRNA) [(GU)5 10-mer]
Kd [3]: 52.5 ± 7.2 µM

UUUUAACAU (ssRNA) [LBE 5'-half 9-mer]
Kd [4]: 35.6 ± 6.8 µM

UUUUAAGCGUAUUUU (ssRNA) [LBE mutant (GCG)]
Kd [5]: 21.4 ± 3.6 µM
binding result (Roquin-1 ROQ domain [6]): no binding

CACACACACA (ssRNA) [(CA)5 10-mer]
binding result [7]: no binding
